According to the supplement of paper PMC10567573:

B1: TMEM192 (parent)
chain: ILGKVILWILHLLLECYIQYHHSK

Variants of: B1
Assay: protein stability index of a GFP-peptide fusion (GPS, HEK-293T) (PSI 1-6); higher = more stable
Settings: c terminus: a fixed tail appended
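Note: lentivirally expressed fusions sorted by FACS into six bins by GFP to DsRed ratio, PSI derived from sequencing read proportions per bin multiplied by bin number.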

Protein stability index: each site, then its substitutions
I9: M 2.58; E 4.08; P 3.29; Q 2.8; W 3.09; N 4.27; V 3.3; C 2.61; T 4.05; D 2.89; H 3.16; L 2.68; G 1.96; Y 2.94; F 3.71; R 2.96; K 3.67
H21: G 3.35; T 2.54; P 2.65; I 3.57; D 4.02; N 1.95; L 2.36; V 3.35; Y 4.47; K 3.49; F 3.45; M 2.86; W 2.55; S 2.67; R 1.92; E 3
H22: P 2.33; K 3.66; A 2.94; W 3.65; L 1.94; G 2.63; C 1.54; V 2.95; S 3.42; T 2.36; F 2.56; D 3.4; I 2.33; M 1.96; Y 3.11; E 2.6
L10: R 1.98; M 3.36; I 3.22; V 2.85; E 5.03; S 2.3; K 1.75; D 2.76; W 3.83; F 3.04; A 2.54; C 1.5; P 3.36; T 2.19; N 3.04
L14: Y 3.51; R 2.71; S 2.43; G 3.05; F 2.75; Q 2.28; P 3.38; W 1.68; C 2.25; A 2.08; K 2.31; V 4.41; M 2.95; T 3.98; H 3.19; D 3.16; E 3.72; I 3.72; N 3.68
Q19: W 2.36; P 2.26; H 2.44; L 4.51; Y 3.49; E 3.03; V 3.16; A 2.58; M 2.97; G 3.15; D 3.64; F 2.49; R 2.9; C 3.13; K 2.25; T 2.57; I 2.76; N 2.91
V5: G 3.88; K 2.08; N 2.55; W 3.91; D 3.49; Q 2.86; E 3.81; S 3.18; I 3.3; M 3.23; P 1.85; Y 4.62; C 2.73; A 2.85; R 2.43; H 2.2; F 2.7; T 2.49
C16: S 5.42; A 3.38; K 3.66; Y 3.21; I 2.95; M 3.3; P 2.88; F 2.6; N 3.32; W 2.31; Q 2.86; T 3.84; G 3.5; D 2.6; E 2.48
S23: D 2.57; A 2.08; E 2.49; F 2.9
H11: R 3.16; C 3.27; K 3.6; V 3.77; Y 2.56; I 3.89; Q 2.29; S 2.22; M 4.49; W 2.94; G 2.09; P 3.26; A 2.76; T 2.63; N 2.91; F 3.18
I6: E 2.55; M 2.24; Q 3.64; L 3.74; S 3.76; T 3.07; C 2.94; H 3.07; A 1.4; V 3.41; P 2.73; R 2.74; W 2.72; K 3.39; N 2.86; D 3.23; Y 2.98
L7: P 1.85; C 2.19; E 3.07; T 3.57; N 2.51; V 1.74; R 1.75; G 4.45; K 2.36; D 2.86; I 2.24; H 2.6; Y 2.85; S 3.17; W 3.41; M 1.54; F 2.7; Q 3.32
I18: M 2.03; D 2.61; C 2.4; S 2.74; F 3.01; P 2.44; T 2.31; G 2.71; E 2.99; A 4.65; V 3.96; H 2.59; K 3.4; R 2.36; Q 3.46; N 1.48; W 3.7; L 3.64; Y 2.24
Y20: T 4.2; N 2.5; H 1.97; R 1.94; D 2.2; A 2.9; K 2.51; C 3.13; P 3.57; G 2.11; L 3.1; M 3.73; E 3.48; W 2.22; S 3.62; F 1.26; Q 4.39; V 3.38
L12: K 2.69; A 3; D 3.31; Q 4.15; P 3.07; V 2.88; Y 2.14; S 3.61; H 2.19; T 3.88; E 3.21; W 3.59; F 2.47; N 3.52; R 2.87; G 3.98; M 2.29
E15: I 3.52; Y 2.69; D 2.1; H 3.19; N 3.35; G 2.81; Q 3.19; F 2.44; M 2.76; T 2.4; L 3.05; A 3.03; C 2.82; K 2.68; V 3.17; S 2.14; P 3.23
K4: L 3.75; M 3.11; S 2.9; H 4.67; Y 2.87; D 3.04; E 2.46; G 3.12; N 2.98; A 2.97; P 1.73; F 3.11; W 2.93; V 2.92; I 2.81; R 1.83; T 2.8
G3: V 2.32; W 2.58; Y 3.82
Y17: S 3.71; R 2.2; P 3.26; Q 2.67; A 2.48; W 3.9; L 2.59; F 3.16; D 2.2; H 3.22; K 2.99; G 3.49; N 3.47; T 1.81; M 2.85; E 3.46; I 3.59; C 2.8
W8: K 2.89; L 2.26; T 3.65; I 2.08; Q 2.89; M 3.22; H 3.31; A 2.92; E 2.47; R 2.25; N 3.71; S 3.6; F 3.29; P 2.6; Y 2.98; D 2.44; V 3.11; G 2.02
L13: T 2.88; K 2.9; C 2.76; Y 2.97; H 2.83; R 2.37; V 2.8; I 2.04; F 2.5; N 3.18; Q 2.11; A 3.26; M 3.1; G 2.25; W 2.21; P 3.39; S 2.98; D 2.47
